{"source": "paper PMC3462190", "about": "“A Peptidic Unconjugated GRP78/BiP Ligand Modulates the Unfolded Protein Response and Induces Prostate Cancer Cell Death” (PLoS ONE, 2012)", "molecules": {"B1": {"name": "Bag-1 peptide: internal sequence of 68 amino acids of Bag-1 (Bag1-L 202–269), HA-tagged, expressed from pcDNA3 (peptide)", "chain": "TPLSALGIQDGCRVMLIGKKNSPQEEVELKKLKHLEKSVEKIADQLEELNKELTGIQQGFLPKDLQAE", "modifications": "also: HA tag, end not given here"}}, "key": {"[1]": {"system": "LNCaP xenograft tumor", "assay": "LNCaP tumor xenograft study", "format": "in vivo, athymic nude mice", "settings": "mean and SD of 4–10 tumors", "description": "All animal experiments were performed according to European and German statutory regulations. For generation of xenograft models 5×10^6 LNCaP cells were resuspended in a solution of 50% Matrigel® (BD Bioscience, Heidelberg, Germany) in PBS or 5×10^6 22Rv.1 cells in 100 µl of PBS were subcutaneously injected into both flanks of 6–8 week-old athymic nude mice. Tumor size was measured with a caliper every week. Tumors derived from the […], […] Tumor size was assessed measuring three perpendicular diameters according to the formula: V = (1/6) [π] (d1d2d3), where π is a mathematic constant and d1, d2 and d3 represent the three spatial dimensions (width, depth and height). Mice were euthanized by cervical dislocation and the tumors removed for further analysis."}, "[2]": {"system": "22Rv.1 xenograft tumor", "assay": "TUNEL assay on xenograft tumor sections", "format": "in vivo, athymic nude mice", "settings": "22Rv.1 xenografts, clones P25, P29 and P42 vs V18, V19 and V33", "description": "Tissues were fixed in 10% formalin for 16 h at room temperature, stored in ethanol (50%), paraffin embedded, and sectioned 5 µm thick with a Leica RM 2155 microtome. Apoptotic cells were detected via terminal deoxynucleotidyl transferase-mediated deoxyuridine-triphosphate-biotin nick end labeling (TUNEL) assay using the DNA fragmentation ApopTag® peroxidase in situ apoptosis detection kit (Millipore, Schwalbach, Germany).\nFigure 4 The Bag-1 peptide inhibits prostate cancer cell growth in vivo. A. Stable clones of 22Rv.1 cells show reduced cell viability in vitro. Stable clones were seeded in a 96-well plate and the cell number in each well was estimated by measuring the ratio between the wavelength of excitation and emission 560/590 nm using the CellTiter-Blue™ proliferation assay. The bar charts represent the mean of at least four independent experiments ±SD (*p<0.05). B. Determination of the level of the Bag-1 expressed in the 22Rv.1 clones. Cellular extracts of 22v.1 stable clones were subjected to Western blot analysis. An anti-HA antibody was used to detect the peptide and an anti-β-actin antibody for equal loading control. […] Tumor size was measured once per week using a caliper and expressed as tumor volume in mm^3. […] Nuclei are stained blue-purple with hematoxylin while apoptotic cells detected with the TUNEL assay are stained brown. […]"}, "[3]": {"system": "22Rv.1 cells", "assay": "CellTiter-Blue proliferation/viability assay", "format": "cell-based", "settings": "22Rv.1 clones P25, P29 and P42 vs vector clones V18, V19 and V33; no ER stress; 2 days; at least four independent experiments, p<0.05", "description": "CellTiter-Blue® cell viability assay kit (Promega) was used for the determination of cell viability. Briefly 22Rv.1 cells stably overexpressing the Bag-1 peptide were seeded into two 96 well plate (4500 cells/well) and the measurements were performed in triplicate. One plate was analyzed at day 0 and the other plate, 2 days later. Three hours after seeding, 20 µl of dye were added to each well containing 100 µl of culture medium and incubated for 4 h at 37°C. Fluorescence was measured by the plate-reading fluorometer FluoStar Optima (2001, BMG Labtechnology, software version 1.10–0) and presented as the ratio of the value at the excitation wavelength (560 nm) over the emission wavelenght (590 nm). Cell proliferation was determined from the difference between the fluorescence intensity at the final time point and the value obtained at the day of seeding of the cells (day 0).\nFigure 4 The Bag-1 peptide inhibits prostate cancer cell growth in vivo. A. Stable clones of 22Rv.1 cells show reduced cell viability in vitro. […] Tumor size was measured once per week using a caliper and expressed as tumor volume in mm^3. […] Nuclei are stained blue-purple with hematoxylin while apoptotic cells detected with the TUNEL assay are stained brown. […]"}}, "data": [{"molecule": "B1", "values": [{"measurement": "Tumor weight, clone P12", "setting": "[1]; LNCaP clone P12, termination 8 weeks, vector V82 0.65±0.29 g (8 weeks)", "value": "0.04 ± 0.03", "unit": "g"}, {"measurement": "Tumor weight, clone P35", "setting": "[1]; LNCaP clone P35, termination 6 weeks, vector V69 0.22±0.03 g (6 weeks)", "value": "0.05 ± 0.01", "unit": "g"}, {"measurement": "TUNEL positive cells (apoptosis)", "setting": "[2]", "value": "strong signals indicative of massive apoptosis"}, {"measurement": "proliferation", "setting": "[3]", "value": "significantly reduced proliferation"}]}]}
